Laboratory results from publication PMC2386557, “Varicellovirus UL49.5 Proteins Differentially Affect the Function of the Transporter Associated with Antigen Processing, TAP” (PLoS Pathogens, 2008).
Where no end group is shown, it is not given here. The star is where a group is joined. 125I = [125I]*

Key:
Details in all cases: one partner purified
[1] = molecular target: T1, TAP complex of MJS TAP1-GFP cells (TAP1-GFP with TAP2) ( | human (endogenous in MJS), UniProt Q03518;Q03519); experiment: radioligand binding; microsomes of control MJS TAP1-GFP cells incubated on ice with increasing concentrations of RR[125I]YQKSTEL in AP buffer (5 mM MgCl2 in PBS, pH 7.0); corrected for the signal with 200-fold excess of ICP47; triplicate
T1 construct: also called GFP-tagged TAP
T1 sequence 1: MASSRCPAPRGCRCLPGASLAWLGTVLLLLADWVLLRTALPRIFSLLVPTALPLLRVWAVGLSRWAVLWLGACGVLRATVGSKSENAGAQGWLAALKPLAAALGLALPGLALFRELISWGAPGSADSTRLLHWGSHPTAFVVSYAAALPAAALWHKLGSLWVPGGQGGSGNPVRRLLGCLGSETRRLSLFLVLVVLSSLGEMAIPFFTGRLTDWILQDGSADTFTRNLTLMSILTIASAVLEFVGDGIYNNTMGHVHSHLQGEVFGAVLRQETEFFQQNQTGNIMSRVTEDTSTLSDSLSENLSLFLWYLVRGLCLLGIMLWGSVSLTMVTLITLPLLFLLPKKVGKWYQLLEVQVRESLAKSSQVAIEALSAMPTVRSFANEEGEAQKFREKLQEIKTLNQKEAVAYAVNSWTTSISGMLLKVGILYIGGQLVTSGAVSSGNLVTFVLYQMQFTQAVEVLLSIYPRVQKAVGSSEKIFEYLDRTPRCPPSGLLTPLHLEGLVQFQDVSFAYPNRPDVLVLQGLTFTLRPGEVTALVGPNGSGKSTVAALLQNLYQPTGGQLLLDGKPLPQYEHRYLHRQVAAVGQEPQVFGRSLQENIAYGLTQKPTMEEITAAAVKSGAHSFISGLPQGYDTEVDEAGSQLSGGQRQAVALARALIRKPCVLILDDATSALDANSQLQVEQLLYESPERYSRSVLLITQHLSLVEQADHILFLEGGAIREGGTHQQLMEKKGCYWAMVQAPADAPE
T1 sequence 2: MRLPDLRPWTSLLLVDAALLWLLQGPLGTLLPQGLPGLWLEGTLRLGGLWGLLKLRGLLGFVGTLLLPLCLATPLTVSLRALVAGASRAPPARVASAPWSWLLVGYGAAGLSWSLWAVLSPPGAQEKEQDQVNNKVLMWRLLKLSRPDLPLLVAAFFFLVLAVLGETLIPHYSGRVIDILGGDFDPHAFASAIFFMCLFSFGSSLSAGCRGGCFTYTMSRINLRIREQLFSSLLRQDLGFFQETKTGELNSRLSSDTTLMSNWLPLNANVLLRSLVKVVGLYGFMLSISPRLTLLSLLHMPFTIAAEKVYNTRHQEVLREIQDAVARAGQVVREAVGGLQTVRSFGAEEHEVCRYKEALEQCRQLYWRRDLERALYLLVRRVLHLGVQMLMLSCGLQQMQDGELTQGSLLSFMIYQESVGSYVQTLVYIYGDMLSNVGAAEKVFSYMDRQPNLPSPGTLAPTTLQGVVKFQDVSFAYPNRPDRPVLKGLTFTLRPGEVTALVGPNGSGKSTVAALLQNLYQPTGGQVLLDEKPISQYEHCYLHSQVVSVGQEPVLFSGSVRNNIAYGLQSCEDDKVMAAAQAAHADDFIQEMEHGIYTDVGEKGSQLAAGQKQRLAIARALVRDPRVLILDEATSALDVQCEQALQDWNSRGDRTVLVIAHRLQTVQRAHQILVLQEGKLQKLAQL

[2] = molecular target: T1, TAP complex of MJS TAP1-GFP cells …; experiment: radioligand binding; as a2, but microsomes of MJS TAP1-GFP cells that express EHV-1 UL49.5
[3] = molecular target: T1, TAP complex of MJS TAP1-GFP cells …; experiment: radioligand binding

B1: radiolabeled reporter peptide RR[125I]YQKSTEL (peptide)
peptide: RRY(125I)QKSTEL
notes: also called ^125I-labeled reporter peptide; radiolabeled peptide
Which results are given for B1?
Kd [1]: 277 ± 58 nM; Kd [2]: 236 ± 71 nM; Kd [3]: 351 ± 42 nM
